The results in this text go back to PMC2785718, “Structure/function studies of dogfish α-crystallin, comparison with bovine α-crystallin” (Molecular Vision, 2009).

In one test the target is T1, dogfish αB-crystallin (spiny dogfish (endogenous in lens), UniProt P02512 1-177).
T1 construct: αB-crystallin polypeptide of spiny dogfish lens α-crystallin; native subunit, not separated from αA-crystallin; tryptophan at positions 9, 49 and 63; Native polypeptide from lens; It accounts for >80% of dogfish α-crystallin; also called αB polypeptide; αB subunit
T1 sequence (looked up): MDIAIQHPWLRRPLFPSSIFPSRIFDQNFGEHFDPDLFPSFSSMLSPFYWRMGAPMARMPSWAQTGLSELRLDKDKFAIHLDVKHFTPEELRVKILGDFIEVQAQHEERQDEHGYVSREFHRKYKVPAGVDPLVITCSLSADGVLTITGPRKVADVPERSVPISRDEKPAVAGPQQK
The experiment in a line: SEC; gel filtration of lens extract on Sephacryl S300 in phosphate buffered saline with sodium azide, pH 7.2, room temperature; central 50% of the α-crystallin peak rechromatographed; size by comparison with known proteins; subunits of the isolated native hetero-oligomer by SDS-PAGE (only α-crystallin polypeptides present). The settings on record: both partners purified.

Another test has as its target T2, bovine αB-crystallin (bovine (endogenous in lens), UniProt P02510 1-175).
T2 construct: αB-crystallin polypeptide of bovine lens α-crystallin; native subunit, not separated from αA-crystallin; Native polypeptide from lens; also called bovine αB-crystallin polypeptide
T2 sequence (looked up): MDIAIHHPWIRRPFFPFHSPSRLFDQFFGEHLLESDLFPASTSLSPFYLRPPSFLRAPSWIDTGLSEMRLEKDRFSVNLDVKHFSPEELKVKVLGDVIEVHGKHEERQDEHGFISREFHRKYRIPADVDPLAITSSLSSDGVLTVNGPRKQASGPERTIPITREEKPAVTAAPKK
The test is described as above. Particulars: both partners purified.

B1: dogfish αA-crystallin (natural protein, spiny dogfish (endogenous in lens), UniProt P02509 1-177, looked up)
chain: MDLAIQYPWFRRSLGSFYPSRLFDQFFGEGLFDYDLFPFFSSTISPYYRQSVFRNFLDSGISEVRSEKDRFMINLNVKHFSPEELSVKIVDDYVEIHGKHAERQEDQGRVSREFHRTYHLPSNLNESAIACSLSNEGLLTLCCPKTRPGDDSNWQDRPIPVSREEKQGTQPEIRADP
notes: αA-crystallin polypeptide of spiny dogfish lens α-crystallin; native subunit, not separated from αB-crystallin; tryptophan at positions 9 and 154; Native polypeptide from lens; also called αA chain; αA-crystallin subunit
For B1, in the test with dogfish αB-crystallin, the “stoichiometry N” value is ~0.2 αA:αB.

B2: bovine αA-crystallin (natural protein, bovine (endogenous in lens), UniProt P02470 1-173, looked up)
chain: MDIAIQHPWFKRTLGPFYPSRLFDQFFGEGLFEYDLLPFLSSTISPYYRQSLFRTVLDSGISEVRSDRDKFVIFLDVKHFSPEDLTVKVQEDFVEIHGKHNERQDDHGYISREFHRRYRLPSNVDQSALSCSLSADGMLTFSGPKIPSGVDAGHSERAIPVSREEKPSSAPSS
notes: αA-crystallin polypeptide of bovine lens α-crystallin; native subunit, not separated from αB-crystallin; Native polypeptide from lens; also called bovine αA chain; bovine αA-crystallin subunit
In the case of B2, in the test with bovine αB-crystallin, the binding result is recorded as “binds”.
